Experimental data: US20230031670, “METHOD AND KIT FOR DETECTION OF POLYNUCLEOTIDE” (Counci of Scientific & Industrial Research, published 2023)

Assays:
Conditions in all cases: tags: GFP; Ni-NTA purified
dFnCas9-GFP [1] = target: T1, dFnCas9-GFP (Francisella novicida, UniProt A0Q5Y3 SEQ:272-1899); test: MST; low Kd, value in figure only; 30 bp dsDNA, 10 mM MgCl2
T1 chain: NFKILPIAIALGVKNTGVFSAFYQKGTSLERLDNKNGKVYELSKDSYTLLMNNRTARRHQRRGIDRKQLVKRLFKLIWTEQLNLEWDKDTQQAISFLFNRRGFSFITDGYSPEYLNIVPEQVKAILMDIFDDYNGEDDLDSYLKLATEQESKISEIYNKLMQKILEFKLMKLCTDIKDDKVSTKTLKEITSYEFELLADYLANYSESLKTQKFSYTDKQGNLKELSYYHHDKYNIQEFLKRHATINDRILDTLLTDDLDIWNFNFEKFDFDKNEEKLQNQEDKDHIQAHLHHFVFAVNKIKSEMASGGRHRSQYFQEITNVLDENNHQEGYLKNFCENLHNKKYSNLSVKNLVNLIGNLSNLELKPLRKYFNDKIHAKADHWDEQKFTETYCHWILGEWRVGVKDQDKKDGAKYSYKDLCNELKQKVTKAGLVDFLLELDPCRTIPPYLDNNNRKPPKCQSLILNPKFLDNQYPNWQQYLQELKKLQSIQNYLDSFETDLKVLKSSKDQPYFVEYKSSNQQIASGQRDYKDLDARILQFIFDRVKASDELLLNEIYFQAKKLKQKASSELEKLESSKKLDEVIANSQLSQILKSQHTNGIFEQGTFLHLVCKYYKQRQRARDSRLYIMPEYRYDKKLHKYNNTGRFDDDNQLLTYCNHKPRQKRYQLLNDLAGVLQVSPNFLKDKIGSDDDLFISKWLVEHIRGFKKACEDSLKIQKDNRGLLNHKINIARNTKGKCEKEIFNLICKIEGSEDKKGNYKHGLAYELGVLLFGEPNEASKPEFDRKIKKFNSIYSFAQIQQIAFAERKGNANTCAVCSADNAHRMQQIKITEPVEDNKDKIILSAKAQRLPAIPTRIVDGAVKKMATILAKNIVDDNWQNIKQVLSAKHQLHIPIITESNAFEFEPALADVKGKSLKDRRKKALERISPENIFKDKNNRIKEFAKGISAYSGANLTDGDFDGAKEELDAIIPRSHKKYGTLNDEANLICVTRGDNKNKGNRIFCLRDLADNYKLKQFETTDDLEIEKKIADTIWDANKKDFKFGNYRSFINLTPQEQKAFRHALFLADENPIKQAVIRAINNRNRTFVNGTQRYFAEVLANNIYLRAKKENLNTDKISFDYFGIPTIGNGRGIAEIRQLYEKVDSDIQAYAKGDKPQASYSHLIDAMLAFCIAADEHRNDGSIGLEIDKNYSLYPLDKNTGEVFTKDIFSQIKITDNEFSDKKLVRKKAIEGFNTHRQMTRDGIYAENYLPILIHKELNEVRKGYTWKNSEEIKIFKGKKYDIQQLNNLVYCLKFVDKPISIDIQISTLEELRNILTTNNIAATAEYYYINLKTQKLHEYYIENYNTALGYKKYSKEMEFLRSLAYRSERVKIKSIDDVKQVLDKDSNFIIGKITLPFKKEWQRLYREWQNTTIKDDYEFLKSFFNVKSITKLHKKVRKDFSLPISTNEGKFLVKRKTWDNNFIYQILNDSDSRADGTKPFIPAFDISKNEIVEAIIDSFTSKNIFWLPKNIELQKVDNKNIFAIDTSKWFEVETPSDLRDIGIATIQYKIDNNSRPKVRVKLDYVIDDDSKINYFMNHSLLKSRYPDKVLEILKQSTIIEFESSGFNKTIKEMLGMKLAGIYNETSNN
Method: (§1) MST was performed as reported previously [Dong, D. et al. The crystal structure of Cpfl in complex with CRISPR RNA. Nature (2016); Wienken, C. J., Baaske, P., Rothbauer, U., Braun, D. & Duhr, S. Protein-binding assays in biological liquids using microscale thermophoresis. Nat. Commun. (2010)]. Briefly, dFnCAS9-GFP (SEQ ID NO: 3) protein was complexed with PAGE purified respective IVT sgRNAs (purified by 12% Urea-PAGE). The binding affinities of the CAS9 proteins and sgRNA RNP complexes were calculated using Monolith NT. 115 (NanoTemper Technologies GmbH, Munich, Germany). RNP complex (Protein:sgRNA molar ratio,1:1) was reconstituted at 25° C. for 10 mins in reaction buffer (20 mM HEPES, pH7.5, 150 mM KCl, 1 mM DTT, 10 mM MgCl₂). HPLC purified 30 bp dsDNA (IDT) of different genomic loci with varying concentrations (ranging from 0.09 nM to 30,t/M) were incubated with RNP complex at 37° C. temperature for 30 min in reaction buffer. The sample was loaded into NanoTemper standard treated capillaries and measurements were performed at 25° C. using 20% LED power and 40% MST power. Data analyses were done using NanoTemper analysis software.

dFnCas9-GFP [2] = target: T1, dFnCas9-GFP; test: MST; no binding seen
Method: as §1

dFnCas9-GFP [3] = target: T1, dFnCas9-GFP; test: MST; SEQ ID NO 33 mismatches at 2 and 6; no binding seen
Method: as §1

B1: HBB WT sgRNA (FnCas9) ; HBB WT target (ssRNA ; dsDNA)
RNA: GUAACGGCAGACUUCUCCUCAGGGUUUCAGUUGCGCCGAAAGGCGCUCUGUAAUCAUUUAAAAGUAUUUUGAACGGACCUCUGUUUGACACGUCUG
DNA 1: GTAACGGCAGACTTCTCCTC
DNA 2: GAGGAGAAGTCTGCCGTTAC
binding result (dFnCas9-GFP [1]): binds

B2: HBB WT sgRNA (FnCas9) ; HBB mismatched target 1 (ssRNA ; dsDNA)
RNA: GUAACGGCAGACUUCUCCUCAGGGUUUCAGUUGCGCCGAAAGGCGCUCUGUAAUCAUUUAAAAGUAUUUUGAACGGACCUCUGUUUGACACGUCUG
DNA 1: GAAGAAAAGTCTGCCGTTAC
DNA 2: GTAACGGCAGACTTTTCTTC
binding result (dFnCas9-GFP [2]): no binding

B3: HBB sgRNA with mismatches at PAM-proximal 2 and 6 (FnCas9) ; HBB WT target (ssRNA ; dsDNA)
RNA: GUAACGGCAGACUUAUCCACAGGGUUUCAGUUGCGCCGAAAGGCGCUCUGUAAUCAUUUAAAAGUAUUUUGAACGGACCUCUGUUUGACACGUCUG
DNA 1: GTAACGGCAGACTTCTCCTC
DNA 2: GAGGAGAAGTCTGCCGTTAC
binding result (dFnCas9-GFP [3]): no binding
